Experimental data reported in PMC3749136 (PLoS ONE, 2013).

Biological target: T1, JAK1 JH1 domain (UniProt P23458 875-1153)
T1 construct: JAK1, JH1 (kinase) domain; also called JAK1 kinase (JH1) domain; active JAK1 JH1 domain
Assay: SPR; SOCS5 175-244 immobilised by amine coupling on a CM5 chip; JAK JH1 domains (62.5 nM to 2 µM) injected; 10 mM HEPES pH 8.0, 200 mM NaCl, 3.0 mM EDTA, 0.05% Tween20; steady-state fit, apparent KD; BIAcore3000
Details: both partners purified

T1 sequence (P23458 875-1153): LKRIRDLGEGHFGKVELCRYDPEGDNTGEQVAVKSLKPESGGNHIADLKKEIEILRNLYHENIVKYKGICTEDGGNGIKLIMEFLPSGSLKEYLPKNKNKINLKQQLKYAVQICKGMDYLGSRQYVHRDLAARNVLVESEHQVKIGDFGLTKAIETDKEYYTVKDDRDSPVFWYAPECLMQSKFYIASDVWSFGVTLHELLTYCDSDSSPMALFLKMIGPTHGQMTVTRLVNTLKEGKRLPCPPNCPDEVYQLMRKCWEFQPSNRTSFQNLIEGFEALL

Kd: 500 nM
B1: SOCS5 175–244 fragment (domain or fragment, mouse, UniProt O54928 175-244, looked up)
chain: RSLRQRLQDTVGLCFPMRTYSKQSKPLFSNKRKIHLSELMLEKCPFPAGSDLAQKWHLIKQHTAPVSPHS
notes: SOCS5, mouse, residues 175-244 (region conserved in SOCS4); Mass by LC-MS 8103 Da; also called JIR; source: E. coli BL21 (DE3), GST fusion purified on glutathione-Sepharose 4B, cleaved with TEV, RP-HPLC; not shown: GST, N-terminal, cleaved
